Results: US20110070238A1 (published 2011)

Target: T1, LAG-3 protein as used in the Biacore analysis (partner not given) (UniProt P18627 23-434, limits assumed)
T1 sequence (looked up): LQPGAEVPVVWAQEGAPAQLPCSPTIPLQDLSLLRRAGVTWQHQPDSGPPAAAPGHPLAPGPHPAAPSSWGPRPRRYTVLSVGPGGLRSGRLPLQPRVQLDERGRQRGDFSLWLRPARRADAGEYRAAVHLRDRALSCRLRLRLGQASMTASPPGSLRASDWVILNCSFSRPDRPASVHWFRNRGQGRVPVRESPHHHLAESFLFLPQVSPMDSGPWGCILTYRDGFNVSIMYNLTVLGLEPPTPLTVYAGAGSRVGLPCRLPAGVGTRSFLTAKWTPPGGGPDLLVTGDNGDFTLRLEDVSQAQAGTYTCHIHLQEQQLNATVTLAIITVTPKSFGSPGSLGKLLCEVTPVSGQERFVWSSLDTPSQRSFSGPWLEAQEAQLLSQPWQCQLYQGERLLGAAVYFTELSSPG
Assay: Biacore (SPR)

B1: A9H12 (580.1E MM H12), murine IgG2a anti-human LAG-3 monoclonal antibody (antibody, V domains shown)
VH: QVQLKESGPGLVAPSQSLSITCTVSGFSLTAYGVNWVRQPPGKGLEWLGMIWDDGSTDYNSALKSRLSISKDNSKSQVFLKMNSLQTDDTARYYCAREGDVAFDYWGQGTTLTVSS
VL: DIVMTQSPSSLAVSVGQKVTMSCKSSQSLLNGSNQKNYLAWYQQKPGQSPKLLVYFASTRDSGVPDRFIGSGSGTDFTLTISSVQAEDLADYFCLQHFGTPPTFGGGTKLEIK
notes: Murine IgG2a from hybridoma; also called A9H12 LAG-3 mAb; hybridoma CNCM I-3755
B1 gave a Kd of 0.829 nM, a koff of 0.00143 s⁻¹ and a kon of 1.72e+06 M⁻¹ s⁻¹.

B2: IMP731 (chimeric A9H12 with human IgG1 Fc region) (antibody, V domains shown)
VH: B1 VH
VL: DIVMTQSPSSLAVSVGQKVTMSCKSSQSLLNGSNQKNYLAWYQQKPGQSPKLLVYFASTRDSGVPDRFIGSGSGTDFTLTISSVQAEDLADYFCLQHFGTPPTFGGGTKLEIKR
notes: also called ImmuTune IMP731; IMP371 [sic]
B2 showed a Kd of 0.551 nM, a koff of 0.00112 s⁻¹ and a kon of 2.03e+06 M⁻¹ s⁻¹.
